Experimental data as given in patent publication CN106117361A (UNIV SUN YAT SEN, dated 2016).

Molecular target: T1, CD3-His蛋白(MP-5)
T1 construct: Immunogen and panning antigen; also called CD3蛋白
Test: BLI (Octet RED96) off-rate screening, sdAb-SASA from expression medium captured on BSA-coated biosensor, CD3 at 100 nM in solution, 30°C, 1:1 Langmuir model

B1: A30322 抗CD3单域抗体 (sdAb) (VHH)
VHH: EVQLVECGGGLVQAGGSLRLSCAASGRTFDTMGWFRQAPGKEREFVAAVRWSSGNTYYGNTVKGRFTISRDTATNTVYLEMNSLKHEDTAVYYCAARLAGRGAADHWGQGTQVTVSS
notes: Llama-derived sdAb; Tested as crude sdAb-SASA protein in E. coli expression medium / culture supernatant (FASEBA format), not purified; also called sdAb-SASA蛋白; not shown: SASA fusion partner from the pFASEBA vector (sdAb-SASA protein in expression medium)
koff: 1.43e-05 s⁻¹
